Measured values from patent publication US9764004B2 (Eli Lilly and Company, priority 2015, dated 2017).

Legend:
[1] = Stability in Co-Formulation with GLP-1R Agonist (dulaglutide); assay type: physicochemical; conditions: four weeks, dulaglutide 3 mg/mL
Experimental: Examples 1 and 3 are prepared and dialyzed against C6.5 (10 mM Citrate pH 6.5) using the same method as described above for preparation into T7 buffer. Compounds are formulated separately at 1 mg/mL peptide in buffer C6.5, C6.5M (10 mM Citrate, 46.4 mg/mL D-mannitol, pH 6.5), C6.5T (10 mM Citrate, 0.02% polysorbate-80, pH 6.5), and C6.5MT (10 mM Citrate, 46.4 mg/mL D-mannitol, 0.02% polysorbate-80, pH 6.5). A stock concentration of 46.5 mg/mL of dulaglutide in C6.5 is used to formulate dulaglutide at 3 mg/mL in C6.5 and C6.5MT. Co-formulations in C6.5MT are prepared having 3 mg/mL dulaglutide and 1 mg/mL Example 1, or 3 mg/mL dulaglutide and 1 mg/mL Example 3. Each formulated sample is transferred to three vials and maintained at 4° C., 25° C. and 40° C. Samples are assessed every two weeks for a total of four weeks. Samples are visually assessed for turbidity and phase separation. Stability is assessed by RP-HPLC and SEC-HPLC as described above. Both described HPLC methods give good separation of Example compounds and dulaglutide main peaks as well as all degradation peaks produced by stressing the sample at pH 9 and 40° C. for 3 days.

[2] = biological target: T1, human glucagon receptor (hGcg-R) (Homo sapiens, UniProt P47871); experiment: hGcg-R functional cAMP assay; assay type: cell-based; conditions: geometric mean ± SEM
T1 construct: expressed in transfected cells; host or cells: 293HEK, plasmid phD, hygromycin selection

[3] = biological target: human Glucagon-Like Peptide-1 receptor (hGLP-1R) (Homo sapiens, UniProt P43220); experiment: hGLP-1-R functional cAMP assay

EC50 [2]	EC50 [3]	Molecule	GLP-1-Fc Δ % Main Peak ([1]; RP-HPLC, C6.5, 25° C.)	GLP-1-Fc Δ % Main Peak ([1]; RP-HPLC, C6.5MT, 4° C.)	GLP-1-Fc Δ % Main Peak ([1]; RP-HPLC, C6.5MT, 25° C.)	GLP-1-Fc Δ % Main Peak ([1]; SEC-HPLC, C6.5, 4° C.)	GLP-1-Fc Δ % Main Peak ([1]; SEC-HPLC, C6.5, 25° C.)	GLP-1-Fc Δ % Main Peak ([1]; SEC-HPLC, C6.5, 40° C.)	GLP-1-Fc Δ % Main Peak ([1]; SEC-HPLC, C6.5MT, 4° C.)	GLP-1-Fc Δ % Main Peak ([1]; SEC-HPLC, C6.5MT, 25° C.)	GLP-1-Fc Δ % Main Peak ([1]; SEC-HPLC, C6.5MT, 40° C.)
–	–	dulaglutide	>−10%	−0.46%	−0.8%	0.19%	−0.54%	>−10%	0.29%	−0.87%	−0.83%
